From PMC11927390 (2025) come the findings set out here.

The chains are these.
B1: Fc-tagged human NKG2D (Fc fusion)
chain: IWSAVFLNSLFNQEVQIPLTESYCGPCPKNWICYKNNCYQFFDESKNWYESQASCMSQNASLLKVYSKEDQDLLKLVKSYHWMGLVHIPTNGSWQWEDGSILSPNLLTIIEMQKGDCALYASSFKGYIENCSTPNTYICMQRTV
B2: human ULBP2 (ligand)
chain: GRADPHSLCYDITVIPKFRPGPRWCAVQGQVDEKTFLHYDCGNKTVTPVSPLGKKLNVTTAWKAQNPVLREVVDILTEQLRDIQLENYTPKEPLTLQARMSCEQKAEGHSSGSWQFSFDGQIFLLFDSEKRMWTTVHPGARKMKEKWENDKVVAMSFHYFSMGDCIGWLEDFLMGMDSTLEPSAGAPLAMSS
B3: human ULBP1 (ligand)
chain: GWVDTHCLCYDFIITPKSRPEPQWCEVQGLVDERPFLHYDCVNHKAKAFASLGKKVNVTKTWEEQTETLRDVVDFLKGQLLDIQVENLIPIEPLTLQARMSCEHEAHGHGRGSWQFLFNGQKFLLFDSNNRKWTALHPGAKKMTEKWEKNRDVTMFFQKISLGDCKMWLEEFLMYWEQMLDPTKPPSLAPG
B4: human MICA (MHC class I polypeptide-related sequence A), soluble recombinant (ligand)
chain: EPHSLRYNLTVLSWDGSVQSGFLTEVHLDGQPFLRCDRQKCRAKPQGQWAEDVLGNKTWDRETRDLTGNGKDLRMTLAHIKDQKEGLHSLQEIRVCEIHEDNSTRSSQHFYYDGELFLSQNLETKEWTMPQSSRAQTLAMNVRNFLKEDAMKTKTHYHAMHADCLQELRRYLKSGVVLRRTVPPMVNVTRSEASEGNITVTCRASGFYPWNITLSWRQDGVSLSHDTQQWGDVLPDGNGTYQTWVATRICQGEEQRFTCYMEHSGNHSTHPVPSGKVLVLQSHW
B5: human ULBP6-02 extracellular domain (residues R26-G218) (ligand)
chain: RRDDPHSLCYDITVIPKFRPGPRWCAVQGQVDEKTFLHYDCGNKTVTPVSPLGKKLNVTMAWKAQNPVLREVVDILTEQLLDIQLENYTPKEPLTLQARMSCEQKAEGHSSGSWQFSIDGQTFLLFDSEKRMWTTVHPGARKMKEKWENDKDVAMSFHYISMGDCIGWLEDFLMGMDSTLEPSAGAPLAMSSG
modifications: glycosylation of residues N68 and N82 (in the crystal structure)
B6: human ULBP6-01 (residues G26-G218) (ligand)
chain: GRDDPHSLCYDITVIPKFRPGPRWCAVQGQVDEKTFLHYDCGNKTVTPVSPLGKKLNVTTAWKAQNPVLREVVDILTEQLRDIQLENYTPKEPLTLQARMSCEQKAEGHSSGSWQFSIDGQIFLLFDSEKRMWTTVHPGARKMKEKWENDKDVAMSFHYISMGDCIGWLEDFLMGMDSTLEPSAGAPLAMSSG
B7: human ULBP3 (ligand)
chain: DAHSLWYNFTIIHLPRHGQQWCEVQSQVDQKNFLSYDCGSDKVLSMGHLEEQLYATDAWGKQLEMLREVGQRLRLELADTELEDFTPSGPLTLQVRMSCECEADGYIRGSWQFSFDGRKFLLFDSNNRKWTVVHAGARRMKEKWEKDSGLTTFFKMVSMRDCKSWLRDFLMHRKKRLEPTAPPTMAPG
B8: human ULBP5 (ligand)
chain: GLADPHSLCYDITVIPKFRPGPRWCAVQGQVDEKTFLHYDCGSKTVTPVSPLGKKLNVTTAWKAQNPVLREVVDILTEQLLDIQLENYIPKEPLTLQARMSCEQKAEGHGSGSWQLSFDGQIFLLFDSENRMWTTVHPGARKMKEKWENDKDMTMSFHYISMGDCTGWLEDFLMGMDSTLEPSAGAPPTMSSG

For one assay, the target named is MICB. The assay is described as follows: SPR.
As to B1, the Kd stood at 105 nM.

In another assay the target is B1. The assay is described as follows: SPR. In general terms: Surface plasmon resonance follows binding to a sensor surface in real time, without labels.
For the molecule B2, the Kd was found to be 262 nM.
The same measure, in the same setting: with B3 the figure was 138 nM; with B4, 83.2 nM; with B5, 2.69 nM.
Still for that read-out and setting: with B6 the figure was 42.7 nM; with B7, 836 nM; with B8, 93.4 nM.

As a reminder, the Kd is the equilibrium constant for the complex coming apart. Low readings indicate tighter binding, high ones weaker binding.
